Among the data in patent publication US20210115421 are binding signal (normalized score) values, retold here.

Common to all, as to test: cell_activity
The subject of data set [1] is dLbCas12a-T152R-K538W-K595Y T152R,K538W,K595Y (Lachnospiraceae bacterium ND2006). The following applies: PAM-SCANR in E. coli.
Data set [2] relates to dLbCas12a-G532R-K595R (RR) G532R,K595R (Lachnospiraceae bacterium ND2006). The following applies: PAM-SCANR in E. coli.
In data set [3] the test system is dLbCas12a-K538W K538W (Lachnospiraceae bacterium ND2006).
Data set [4] relates to dLbCas12a-K538W-K595Y K538W,K595Y (Lachnospiraceae bacterium ND2006).
Data set [5] relates to dLbCas12a-K595Y K595Y (Lachnospiraceae bacterium ND2006).
For data set [6], the system named is wt dLbCas12a (catalytically inactive LbCas12a) (Lachnospiraceae bacterium ND2006). The following applies: PAM-SCANR in E. coli, cutoff 1.67.
For data set [7], the system named is dLbCas12a-T152R-K538W T152R,K538W (Lachnospiraceae bacterium ND2006). The following applies: PAM TTTC; printed column identical to K538W+K595Y column.
Data set [8] concerns dLbCas12a-T152R T152R (Lachnospiraceae bacterium ND2006). The note with it: PAM TTTG; PAM-SCANR in E. coli, cutoff 1.67.
Setting [9] is: PAM CCCC, not recognized by single mutant.

With “crRNA targeting lacI promoter ; lacI promoter reporter, AGCC PAM”, the binding signal (normalized score) in data set [1] (PAM AGCC) worked out at 13.7. As for “crRNA targeting lacI promoter ; lacI promoter reporter, CCCC PAM”, the binding signal (normalized score) in data set [2] (PAM CCCC) was 3.87; in data set [3] (setting [9]) it was under 1.67; in data set [4] (PAM CCCC, PAM-SCANR in E. coli) it was 2.95; in data set [5] (setting [9]) it was under 1.67. “crRNA targeting lacI promoter ; lacI promoter reporter, CCGC PAM”: in data set [6] (PAM CCGC), the binding signal (normalized score) was 2.23. Substance “crRNA targeting lacI promoter ; lacI promoter reporter, TCGC PAM” came in with a binding signal (normalized score) in data set [5] (PAM TCGC, PAM-SCANR in E. coli, cutoff 1.67) of 3.23. Regarding “crRNA targeting lacI promoter ; lacI promoter reporter, TGGC PAM”, the binding signal (normalized score) in data set [1] (PAM TGGC) came to 10.3. As to “crRNA targeting lacI promoter ; lacI promoter reporter, TTCG PAM”, in data set [2] (PAM TTCG), the binding signal (normalized score) turned out to be 4.81. For “crRNA targeting lacI promoter ; lacI promoter reporter, TTTA PAM”, the binding signal (normalized score) was 4.71 in data set [3] (PAM TTTA, PAM-SCANR in E. coli, cutoff 1.67, a second K538W column gives 11.18) and under 1.67 in data set [5] (PAM TTTA, TTTV lost in K595Y). For the substance “crRNA targeting lacI promoter ; lacI promoter reporter, TTTC PAM”, the binding signal (normalized score) in data set [4] (PAM TTTC, printed column identical to T152R+K538W column) stood at 12; in data set [7] it was 12; in data set [6] (PAM TTTC) it was 2.96. Consider “crRNA targeting lacI promoter ; lacI promoter reporter, TTTG PAM”, for which, in data set [8], the binding signal (normalized score) was found to be 2.94.
